# T1: recombinant wild type Hordeum vulgare limit dextrinase (wt HvLD) (Hordeum vulgare)
# T1 chain: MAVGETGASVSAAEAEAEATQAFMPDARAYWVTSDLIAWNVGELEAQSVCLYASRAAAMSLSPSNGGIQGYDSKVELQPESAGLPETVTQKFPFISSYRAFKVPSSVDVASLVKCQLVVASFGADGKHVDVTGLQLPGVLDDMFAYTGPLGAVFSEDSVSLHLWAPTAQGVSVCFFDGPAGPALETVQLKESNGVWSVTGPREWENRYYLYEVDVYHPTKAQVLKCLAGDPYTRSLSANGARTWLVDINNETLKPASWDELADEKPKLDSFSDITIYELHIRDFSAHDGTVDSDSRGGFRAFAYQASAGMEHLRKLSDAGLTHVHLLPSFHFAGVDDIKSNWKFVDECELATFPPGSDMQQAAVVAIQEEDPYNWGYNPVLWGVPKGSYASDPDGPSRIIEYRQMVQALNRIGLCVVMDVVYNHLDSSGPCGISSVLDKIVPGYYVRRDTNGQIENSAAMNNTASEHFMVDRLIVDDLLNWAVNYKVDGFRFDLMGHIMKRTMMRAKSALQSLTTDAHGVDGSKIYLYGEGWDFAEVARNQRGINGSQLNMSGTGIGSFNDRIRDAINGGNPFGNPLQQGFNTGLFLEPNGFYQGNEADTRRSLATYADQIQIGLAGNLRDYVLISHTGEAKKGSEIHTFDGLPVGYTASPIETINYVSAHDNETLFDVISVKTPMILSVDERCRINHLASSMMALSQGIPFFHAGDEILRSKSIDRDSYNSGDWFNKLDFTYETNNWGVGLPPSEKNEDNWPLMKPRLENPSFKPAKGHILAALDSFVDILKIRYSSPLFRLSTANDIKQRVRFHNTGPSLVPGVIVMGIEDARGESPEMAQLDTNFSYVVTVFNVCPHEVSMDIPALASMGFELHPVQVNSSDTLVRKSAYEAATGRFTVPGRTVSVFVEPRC
# Target: T1, recombinant wild type Hordeum vulgare …
# Assay: cell-based or functional assay
row,"IC50 (µM) of inhibition of HvLD activity (PullG6 assay, 1.5 µM HvLD) [µM]",Binder
1,1.56,"wild type Hordeum vulgare limit dextrinase inhibitor (wt HvLDI), recombinant (other) TLESVKDECQPGVDFPHNPLATCHTYVIKRVCGRGPSRPMLVKERCCRELAAVPDHCRCEALRILMDGVRTPEGRVVEGRLGDRRDCPREEQRAFAATLVTAAECNLSSVQEPGVRLVLLADG"
2,10.1,"HvLDI mutant P60S, recombinant (other) TLESVKDECQPGVDFPHNPLATCHTYVIKRVCGRGSSRPMLVKERCCRELAAVPDHCRCEALRILMDGVRTPEGRVVEGRLGDRRDCPREEQRAFAATLVTAAECNLSSVQEPGVRLVLLADG"
3,13.2,"HvLDI mutant P60L, recombinant (other) TLESVKDECQPGVDFPHNPLATCHTYVIKRVCGRGLSRPMLVKERCCRELAAVPDHCRCEALRILMDGVRTPEGRVVEGRLGDRRDCPREEQRAFAATLVTAAECNLSSVQEPGVRLVLLADG"
4,7.1,"HvLDI mutant E68K, recombinant (other) TLESVKDECQPGVDFPHNPLATCHTYVIKRVCGRGPSRPMLVKKRCCRELAAVPDHCRCEALRILMDGVRTPEGRVVEGRLGDRRDCPREEQRAFAATLVTAAECNLSSVQEPGVRLVLLADG"
5,15.3,"HvLDI mutant V66M, recombinant (other) TLESVKDECQPGVDFPHNPLATCHTYVIKRVCGRGPSRPMLMKERCCRELAAVPDHCRCEALRILMDGVRTPEGRVVEGRLGDRRDCPREEQRAFAATLVTAAECNLSSVQEPGVRLVLLADG"

# From patent publication US20230111237A1 (CARLSBERG A S, published 2023)
